These results are taken from patent publication US10155020B2, “Compositions and methods for treating hepatitis B” (The Regents of the University of Colorado, a body corporate, priority 2012, dated 2018).

Several values for one entry are separate records, joined by “and”; a condition that tells them apart may be missing. Equal entries are not always repeated.

The subject of one assay is HBV DNA replication. Kind of assay: HBV DNA replication in pHBV-transfected HepG2 cells. The settings on record: cells transfected with mutant HBV genome HBx(G124L, I127A); 5 μM. The format is cell-based, hepatitis B virus. Here is the method: Quantification of HBV DNA replication and HBcAg. Southern hybridization analysis and quantitative real-time PCR were used to quantify the amount of HBV replication DNA intermediates isolated from HepG2 cells or from mouse livers. The level of cytoplasmic HBcAg was measured by chemiluminescence using a commercial assay kit.
Southern Blot Analysis. HepG2 cells (3×10 cm plate per sample) transfected with the pHBV replicon (wild-type or mutant) were washed twice with cold phosphate-buffered saline (PBS) and lysed in 750 μl NET buffer (50 mM Tris-HCl pH 7.5, 1 mM EDTA, 100 mM NaCl, 0.5% Nonidet P-40) per 10 cm plate for 1 hour. HepG2 cell lysates were clarified by centrifugation at 12000 g for 30 minutes at 4° C. The supernatant was adjusted to 6 mM CaCl2 and treated with 100 μg/ml of Micrococcal nuclease for 30 minutes at 37° C. The reaction was stopped by addition of EDTA to a final concentration of 25 mM. […]
Quantitative Real-Time PCR Analysis. […] The pHBV plasmid was used as the standard for quantification and serial dilutions from 2×10^8 to 200 IU/ml were prepared. The primer sequences for quantitative PCR were chosen carefully from regions coding for HBV S antigen and Polymerase. […] PCR products were analyzed by fluorescence. […] The measured raw copy number from each reaction was calculated using the CT value of each PCR interpolated against the linear regression of the standard curve. […]

The subject of a further assay is PLM neurons. As to the kind of experiment: PLM touch cell killing by HBx in C. elegans. It is filed as in vivo.
Assay [1] concerns cytosolic Ca^2+ in PLM neurons. As to the kind of experiment: Cameleon FRET cytosolic calcium imaging in PLM neurons (bzIs17). The format is in vivo, C. elegans.
Source text: Calcium imaging and analysis. A C. elegans strain with an integrated Pmec-4YC2.12 cameleon transgene (bzIs17) was used to quantify relative cytosolic calcium levels in PLM neurons by the FRET microscopy.
Calcium Imaging and Analysis in C. elegans. A C. elegans strain with an integrated Pmec-4YC2.12 cameleon transgene (bzIs17) was used to quantify relative cytosolic calcium levels in PLM neurons. Animals at the L1 larval stage were immobilized on a 2% agar pad in a solution containing 0.3 M 2,3-butanedione monoxime and 10 mM HEPES (pH 7.2). PLM neurons were visualized using an Axioplan 2 Nomarski Microscope (Zeiss) equipped with a SensiCam CCD camera (PCO Imaging Kelheim, Germany). […] The FRET ratio was calculated by (FRETPLM−FRETbkgnd)/(CFPPLM−CFPbkgnd), where FRETPLM and CFPPLM are the mean fluorescent intensities in the FRET and CFP channels of the PLM neuron and FRETbkgnd and CFPbkgnd are the mean fluorescent intensities in the FRET and CFP channels of a background region adjacent to the PLM neurons.
A C. elegans strain carrying an integrated transgene (bzIs17) that expresses a cameleon Ca^2+ sensor under the control of the mec-4 gene promoter was used to monitor intracellular Ca^2+ in six touch cells through the fluorescence-resonance energy transfer (FRET) assay.
The target of a further assay is CED-9 (C. elegans) (UniProt P41958). As to the kind of experiment: isothermal titration calorimetry; peptaibol TK titrated into CED-9. (In general: Isothermal titration calorimetry measures the heat released or taken up as one component is titrated into another.)
Another assay addresses Bcl-2 family proteins. As to the kind of experiment: cell-based or functional assay.
The target in assay [2] is T1, CED-9(68-251; G169E)-His6 (C. elegans, UniProt P41958 68-251).
T1 construct: range 68-251; also called CED-9(G169E); mutant CED-9(G169E) protein
T1 sequence: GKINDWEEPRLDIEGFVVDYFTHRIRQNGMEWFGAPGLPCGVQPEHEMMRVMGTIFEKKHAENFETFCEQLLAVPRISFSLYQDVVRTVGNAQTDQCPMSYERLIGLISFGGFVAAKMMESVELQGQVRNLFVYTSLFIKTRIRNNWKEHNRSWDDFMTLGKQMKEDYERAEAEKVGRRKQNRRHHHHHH
Kind of assay: GST pull-down, immunoblot. On the technique in general: In western blotting, separated proteins are transferred to a membrane and probed.

For a further assay, the target named is T2, His6-mBax(1-173) (mouse, UniProt Q07813 1-173).
T2 construct: range 1-173; also called mouse Bax(1-173)
T2 sequence (Q07813 other isoform, or with tags, fused parts or gaps limits assumed): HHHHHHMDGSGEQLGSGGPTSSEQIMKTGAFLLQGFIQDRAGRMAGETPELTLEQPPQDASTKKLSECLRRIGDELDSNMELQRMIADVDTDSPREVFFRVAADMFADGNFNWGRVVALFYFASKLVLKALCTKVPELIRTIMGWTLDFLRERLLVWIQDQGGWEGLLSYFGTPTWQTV
Kind of assay: GST pull-down, immunoblot.

For assay [3], the target named is T3, CED-9 (in C. elegans animals) (C. elegans, UniProt P41958 1-280).
T3 sequence: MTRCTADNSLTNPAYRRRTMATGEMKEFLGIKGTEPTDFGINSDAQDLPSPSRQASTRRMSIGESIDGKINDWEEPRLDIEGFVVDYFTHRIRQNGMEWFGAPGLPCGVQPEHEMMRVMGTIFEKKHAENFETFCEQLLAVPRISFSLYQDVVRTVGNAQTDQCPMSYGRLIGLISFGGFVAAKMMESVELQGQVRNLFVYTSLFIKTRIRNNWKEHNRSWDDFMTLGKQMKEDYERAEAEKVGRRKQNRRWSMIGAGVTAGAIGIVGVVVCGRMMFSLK
Kind of assay: cell-based or functional assay.

The target in assay [4] is T4, Mcl-1 (human, UniProt Q07820 1-350).
T4 construct: also called anti-apoptotic Bcl-2 family member Mcl-1
T4 sequence (Q07820 whole entry): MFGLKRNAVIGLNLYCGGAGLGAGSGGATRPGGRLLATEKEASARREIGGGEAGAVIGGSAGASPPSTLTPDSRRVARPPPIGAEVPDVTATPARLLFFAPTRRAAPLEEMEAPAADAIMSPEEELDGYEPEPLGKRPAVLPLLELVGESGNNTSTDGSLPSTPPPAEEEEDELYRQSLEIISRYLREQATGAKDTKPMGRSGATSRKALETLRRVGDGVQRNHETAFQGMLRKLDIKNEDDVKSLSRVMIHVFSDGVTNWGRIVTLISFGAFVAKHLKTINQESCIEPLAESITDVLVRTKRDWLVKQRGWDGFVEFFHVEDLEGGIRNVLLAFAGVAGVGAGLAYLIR
Kind of assay: co-immunoprecipitation with anti-HBx antibody from pHBV-transfected HepG2 cells, immunoblot.

Assay [5] addresses T4, Mcl-1. As to the kind of experiment: co-immunoprecipitation with anti-Flag antibody from HepG2 cells, immunoblot.
In assay [6] the target is T5, human Bcl-xL (human, UniProt Q07817 1-233).
T5 construct: also called endogenous Bcl-xL
T5 sequence (Q07817 whole entry): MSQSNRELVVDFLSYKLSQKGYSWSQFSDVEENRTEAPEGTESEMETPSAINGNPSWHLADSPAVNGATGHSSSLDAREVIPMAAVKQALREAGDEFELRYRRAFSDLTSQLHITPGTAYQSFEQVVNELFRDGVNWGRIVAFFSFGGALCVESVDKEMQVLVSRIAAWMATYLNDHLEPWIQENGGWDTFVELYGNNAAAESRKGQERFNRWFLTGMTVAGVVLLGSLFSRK
The description is as above.

Assay [7] addresses T5, human Bcl-xL. Kind of assay: co-immunoprecipitation with anti-HBx antibody from pHBV-transfected HepG2 cells, immunoblot.
In assay [8] the target is T6, CED-9 (Caenorhabditis elegans, UniProt P41958).
T6 sequence (P41958 1-280): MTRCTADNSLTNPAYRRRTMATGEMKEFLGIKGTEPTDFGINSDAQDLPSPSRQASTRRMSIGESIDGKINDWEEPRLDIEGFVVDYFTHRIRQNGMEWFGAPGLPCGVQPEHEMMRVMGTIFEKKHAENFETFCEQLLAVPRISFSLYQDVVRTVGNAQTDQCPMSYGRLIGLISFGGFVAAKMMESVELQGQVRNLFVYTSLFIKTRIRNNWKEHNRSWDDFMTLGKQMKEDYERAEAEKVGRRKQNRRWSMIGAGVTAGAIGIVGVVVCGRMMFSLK
As to the kind of experiment: Isothermal titration calorimetry (ITC), titration of CED-9. It is filed as binding, C. elegans. Particulars: no peptaibol TK.

The target in assay [9] is T7, CED-9 (C. elegans, UniProt P41958 1-251).
T7 sequence (looked up): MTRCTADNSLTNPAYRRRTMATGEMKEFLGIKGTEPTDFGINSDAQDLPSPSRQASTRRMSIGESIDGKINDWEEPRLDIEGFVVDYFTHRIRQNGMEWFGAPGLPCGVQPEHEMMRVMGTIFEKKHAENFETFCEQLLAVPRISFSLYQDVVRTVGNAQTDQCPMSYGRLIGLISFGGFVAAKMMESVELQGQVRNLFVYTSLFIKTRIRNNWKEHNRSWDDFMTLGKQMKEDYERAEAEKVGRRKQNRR
As to the kind of experiment: isothermal titration calorimetry.

Assay [10] addresses CED-9 pre-incubated with peptaibol TK (C. elegans; Trichoderma pseudokoningii) (UniProt P41958). Kind of assay: isothermal titration calorimetry; CED-9 pre-incubated with peptaibol TK, titrated with EGL-1.

As for `C[C@H](CCC(=O)O)C[C@H](C)C[C@H](C)C(=O)/C=C(\O)[C@H](C)C[C@H](C)C/C=C/[C@@H](C)[C@@H](O)[C@@H](C)[C@@H](O)C[C@@H]1CC[C@@](C)([C@H]2CC[C@@](C)([C@@H](C)O)O2)O1` [ionomycin], in the assay with HBV DNA replication, the “HBV DNA replication” value was “largely rescued”.

With cyclosporin A [CsA], in the assay on PLM neurons (smIs98 animals that normally lost 50% of PLM neurons), the “percentage of missing PLM” value is listed as 15%. In addition, the PLM death in the assay with PLM neurons (smIs98 animals with loss of ced-3) is on record as 4%. The “HBx-induced cytosolic Ca^2+ increase (FRET ratio)” value in assay [1] (bzIs17, asp-3(tm4559), smIs451 animals) is on record as “completely suppressed”.

Take `C/C=C(/C)C(=O)O[C@H]1C(C)=C2[C@H]([C@@H]1OC(=O)CCCCCCC)[C@@](C)(OC(C)=O)C[C@H](OC(=O)CCC)[C@@]1(O)[C@H]2OC(=O)[C@@]1(C)O` [thapsigargin]: the “FRET ratio in PLM neurons” value in assay [1] (bzIs17 animals, vs untreated or vector-treated animals) is recorded as “significantly higher”.

In turn, peptaibol TK (peptide) registered a Ka with CED-9 (C. elegans) of 42600 M⁻¹.

B1: HBx(G124L, I127A), P03165 1-154 (protein)
chain: MAARLCCQLDPARDVLCLRPVGAESRGRPFSGSLGTLSSPSPSAVPTDHGAHLSLRGLPVCAFSSAGPCALRFTSARRMETTVNAHQILPKVLHKRTLGLSAMSTTDLEAYFKDCLFKDWEELLEEARLKVFVLGGCRHKLVCAPAPCNFFTSA
On to B1, for which, in the assay with Bcl-2 family proteins, the reduction in HBV DNA replication against the wild-type HBV genome, Q-PCR of viral particles from HepG2 cells is 8 fold and 9 fold; the reduction of replicative DNA intermediates in mouse liver against the wild-type pHBV replicon, southern blot lay within 2 to 3 fold.

B2: GST-HBx (other)
chain: MAARLCCQLDPARDVLCLRPVGAESRGRPFSGSLGTLSSPSPSAVPTDHGAHLSLRGLPVCAFSSAGPCALRFTSARRMETTVNAHQILPKVLHKRTLGLSAMSTTDLEAYFKDCLFKDWEELGEEIRLKVFVLGGCRHKLVCAPAPCNFFTSA
notes: also called pGEX-4T-2-HBx
As to B2, the binding result (in [2]; in the assay with His6-mBax(1-173)) was “no binding” in each case.

B3: HBV x protein (HBx) (other)
chain: MAARLCCQLDPARDVLCLRPVGAESRGRPFSGSLGTLSSPSPSAVPTDHGAHLSLRGLPVCAFSSAGPCALRFTSARRMETTVNAHQILPKVLHKRTLGLSAMSTTDLEAYFKDCLFKDWEELGEEIRLKVFVLGGCRHKLVCAPAPCNFFTSA
notes: also called hepatitis B virus X protein
B3: in [3], the “FRET ratio of cameleon Ca2+ sensor in PLM neurons (cytosolic Ca2+)” value is 40%. In addition, the binding result with Mcl-1 [4] was “no binding”.

B4: Flag-HBx (other)
chain: MAARLCCQLDPARDVLCLRPVGAESRGRPFSGSLGTLSSPSPSAVPTDHGAHLSLRGLPVCAFSSAGPCALRFTSARRMETTVNAHQILPKVLHKRTLGLSAMSTTDLEAYFKDCLFKDWEELGEEIRLKVFVLGGCRHKLVCAPAPCNFFTSA
notes: also called pcDNA3.1-Flag-HBx
As to B4, in the assay with Mcl-1 [5], the binding result is reported as “no binding”.

B5: Flag-HBx(G124L, I127A) (other)
chain: MAARLCCQLDPARDVLCLRPVGAESRGRPFSGSLGTLSSPSPSAVPTDHGAHLSLRGLPVCAFSSAGPCALRFTSARRMETTVNAHQILPKVLHKRTLGLSAMSTTDLEAYFKDCLFKDWEELLEEARLKVFVLGGCRHKLVCAPAPCNFFTSA
notes: also called pcDNA3.1-Flag-HBx(G124L, I127A)
As to B5, the binding result with human Bcl-xL [6] was “no binding”.

B6: HBx(G124L, I127A) (other)
chain: MAARLCCQLDPARDVLCLRPVGAESRGRPFSGSLGTLSSPSPSAVPTDHGAHLSLRGLPVCAFSSAGPCALRFTSARRMETTVNAHQILPKVLHKRTLGLSAMSTTDLEAYFKDCLFKDWEELLEEARLKVFVLGGCRHKLVCAPAPCNFFTSA
notes: also called mutant pHBV
As to B6, the binding result with human Bcl-xL [7] is “no binding”.

B7: EGL-1 (other, C. elegans, UniProt O61667 16-106, looked up)
chain: MSNVFDVQSSVFYNEKNMFYSSSQDFSSCEDSSQFADDSGFFDDSEISSIGYEIGSKLAAMCDDFDAQMMSYSAHASDRSLFHRLLDFFAF
notes: also called BH3-only protein EGL-1
Regarding B7, in the assay with CED-9 [8], the “binding affinity of EGL-1 to CED-9” value was found to be 4.04e+06 M⁻¹. This molecule also yielded a Ka in the assay with CED-9 [9] of 4.04e+06 M⁻¹. In assay [10], this molecule registered a Ka of 1.52e+08 M⁻¹; a fold of the binding affinity between CED-9 and EGL-1 without peptaibol TK of 38 fold.
